# Data from the Human Domainome abundance scans (Beltran et al. 2025).
# ± gives the uncertainty stated by the source.
# B1: Arginine-glutamic acid dipeptide repeats protein, residues 502 to 543; numbered along this chain, Q9P2R6 (parent)
# chain: LKGYACRHCFTTTSKDWHHGGRENILLCTDCRIHFKKYGELP
# Variants of: B1
# Assay: abundance fitness (aPCA) (normalised: wild type 0, dead -1); higher = more abundant; growth selection in yeast, the domain comes from the species named
# Conditions: Homo sapiens
row,Variant,abundance fitness
1,LKGYACRHCFTTTSKDWHHGGRENILLCTDLRIHFKKYGELP [C31L],-1.1 ± 0.075
2,LKGYACRHCFTTTSKDWHHGGRENILLCTDRRIHFKKYGELP [C31R],-1.16 ± 0.07
3,LKGYACRHCFTTTSKDWHHGGRENILLCTDVRIHFKKYGELP [C31V],-1.08 ± 0.079
4,LKGYACRHCFTTTSKDWHHGGRENILLCTDDRIHFKKYGELP [C31D],-0.527 ± 0.21
5,LKGYACRHCFTTTSKDWHHGGRENILLCTDKRIHFKKYGELP [C31K],-0.732 ± 0.092
6,LKGYACRHCFTTTSKDWHHGGRENILLCTDYRIHFKKYGELP [C31Y],-0.911 ± 0.13
7,LKGYACRHCFTTTSKDWHHGGRENILLCTDERIHFKKYGELP [C31E],-0.742 ± 0.05
8,LKGYACRHCFTTTSKDWHHGGRENILLCTDARIHFKKYGELP [C31A],-0.981 ± 0.057
9,LKGYACRHCFTTTSKDWHHGGRENILLCTDQRIHFKKYGELP [C31Q],-1.14 ± 0.19
10,LKGYACRHCFTTTSKDWHHGGRENILLCTDPRIHFKKYGELP [C31P],-1.07 ± 0.15
11,LKGYACRHCFTTTSKDWHHGGRENILLCTDHRIHFKKYGELP [C31H],-0.733 ± 0.091
12,LKGYACRHCFTTTSKDWHHGGRENILLCTDWRIHFKKYGELP [C31W],-1.33 ± 0.19
13,LKGYACRHCFTTTSKDWHHGGRENILLCTDCFIHFKKYGELP [R32F],0.021 ± 0.061
14,LKGYACRHCFTTTSKDWHHGGRENILLCTDCGIHFKKYGELP [R32G],-0.029 ± 0.033
15,LKGYACRHCFTTTSKDWHHGGRENILLCTDCSIHFKKYGELP [R32S],-0.013 ± 0.035
16,LKGYACRHCFTTTSKDWHHGGRENILLCTDCWIHFKKYGELP [R32W],0.053 ± 0.043
17,LKGYACRHCFTTTSKDWHHGGRENILLCTDCKIHFKKYGELP [R32K],-0.137 ± 0.046
18,LKGYACRHCFTTTSKDWHHGGRENILLCTDCTIHFKKYGELP [R32T],-0.088 ± 0.048
19,LKGYACRHCFTTTSKDWHHGGRENILLCTDCCIHFKKYGELP [R32C],-0.114 ± 0.04
20,LKGYACRHCFTTTSKDWHHGGRENILLCTDCDIHFKKYGELP [R32D],-0.001 ± 0.045

row,Variant,abundance fitness
1,LKGYACRHCFTTTSKDWHHGGRENILLCTDCMIHFKKYGELP [R32M],-0.017 ± 0.072
2,LKGYACRHCFTTTSKDWHHGGRENILLCTDCLIHFKKYGELP [R32L],-0.058 ± 0.042
3,LKGYACRHCFTTTSKDWHHGGRENILLCTDCAIHFKKYGELP [R32A],-0.011 ± 0.038
4,LKGYACRHCFTTTSKDWHHGGRENILLCTDCNIHFKKYGELP [R32N],-0.063 ± 0.071
5,LKGYACRHCFTTTSKDWHHGGRENILLCTDCHIHFKKYGELP [R32H],-0.037 ± 0.12
6,LKGYACRHCFTTTSKDWHHGGRENILLCTDCVIHFKKYGELP [R32V],-0.14 ± 0.036
7,LKGYACRHCFTTTSKDWHHGGRENILLCTDCQIHFKKYGELP [R32Q],-0.035 ± 0.045
8,LKGYACRHCFTTTSKDWHHGGRENILLCTDCEIHFKKYGELP [R32E],-0.045 ± 0.042
9,LKGYACRHCFTTTSKDWHHGGRENILLCTDCPIHFKKYGELP [R32P],-0.612 ± 0.072
10,LKGYACRHCFTTTSKDWHHGGRENILLCTECRIHFKKYGELP [D30E],-0.069 ± 0.042
11,LKGYACRHCFTTTSKDWHHGGRENILLCTWCRIHFKKYGELP [D30W],-0.352 ± 0.039
12,LKGYACRHCFTTTSKDWHHGGRENILLCTSCRIHFKKYGELP [D30S],-0.104 ± 0.046
13,LKGYACRHCFTTTSKDWHHGGRENILLCTMCRIHFKKYGELP [D30M],-0.157 ± 0.06
14,LKGYACRHCFTTTSKDWHHGGRENILLCTQCRIHFKKYGELP [D30Q],-0.07 ± 0.043
15,LKGYACRHCFTTTSKDWHHGGRENILLCTCCRIHFKKYGELP [D30C],-0.248 ± 0.12
16,LKGYACRHCFTTTSKDWHHGGRENILLCTICRIHFKKYGELP [D30I],-0.404 ± 0.066
17,LKGYACRHCFTTTSKDWHHGGRENILLCTKCRIHFKKYGELP [D30K],-0.098 ± 0.045
18,LKGYACRHCFTTTSKDWHHGGRENILLCTGCRIHFKKYGELP [D30G],-0.044 ± 0.034
19,LKGYACRHCFTTTSKDWHHGGRENILLCTLCRIHFKKYGELP [D30L],-0.29 ± 0.051
20,LKGYACRHCFTTTSKDWHHGGRENILLCTPCRIHFKKYGELP [D30P],-0.058 ± 0.059

row,Variant,abundance fitness
1,LKGYACRHCFTTTSKDWHHGGRENILLCTTCRIHFKKYGELP [D30T],0.068 ± 0.072
2,LKGYACRHCFTTTSKDWHHGGRENILLCKDCRIHFKKYGELP [T29K],-0.145 ± 0.045
3,LKGYACRHCFTTTSKDWHHGGRENILLCMDCRIHFKKYGELP [T29M],-0.192 ± 0.058
4,LKGYACRHCFTTTSKDWHHGGRENILLCYDCRIHFKKYGELP [T29Y],0.02 ± 0.069
5,LKGYACRHCFTTTSKDWHHGGRENILLCWDCRIHFKKYGELP [T29W],-0.042 ± 0.043
6,LKGYACRHCFTTTSKDWHHGGRENILLCEDCRIHFKKYGELP [T29E],-0.105 ± 0.043
7,LKGYACRHCFTTTSKDWHHGGRENILLCNDCRIHFKKYGELP [T29N],-0.07 ± 0.27
8,LKGYACRHCFTTTSKDWHHGGRENILLCLDCRIHFKKYGELP [T29L],-0.089 ± 0.039
9,LKGYACRHCFTTTSKDWHHGGRENILLCHDCRIHFKKYGELP [T29H],-0.474 ± 0.41
10,LKGYACRHCFTTTSKDWHHGGRENILLCIDCRIHFKKYGELP [T29I],-0.094 ± 0.13
11,LKGYACRHCFTTTSKDWHHGGRENILLCGDCRIHFKKYGELP [T29G],-0.13 ± 0.033
12,LKGYACRHCFTTTSKDWHHGGRENILLCRDCRIHFKKYGELP [T29R],-0.125 ± 0.033
13,LKGYACRHCFTTTSKDWHHGGRENILLCVDCRIHFKKYGELP [T29V],-0.154 ± 0.039
14,LKGYACRHCFTTTSKDWHHGGRENILLCPDCRIHFKKYGELP [T29P],-0.347 ± 0.05
15,LKGYACRHCFTTTSKDWHHGGRENILLCQDCRIHFKKYGELP [T29Q],-0.106 ± 0.042
16,LKGYACRHCFTTTSKDWHHGGRENILLCTDCREHFKKYGELP [I33E],0.081 ± 0.04
17,LKGYACRHCFTTTSKDWHHGGRENILLCTDCRAHFKKYGELP [I33A],0.079 ± 0.036
18,LKGYACRHCFTTTSKDWHHGGRENILLCTDCRDHFKKYGELP [I33D],0.117 ± 0.054
19,LKGYACRHCFTTTSKDWHHGGRENILLCTDCRCHFKKYGELP [I33C],0.103 ± 0.047
20,LKGYACRHCFTTTSKDWHHGGRENILLCTDCRFHFKKYGELP [I33F],-0.079 ± 0.11
